Reference: the supplement of paper PMC11502859

System: HEK293T
Experiment: median enrichment of reporter reads in eGFP-reduced (low/intermediate) vs eGFP-high sorted cells (eGFP-extension fusion abundance) (ratio); higher = stronger loss of eGFP-fusion protein abundance (more destabilising extension)
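Further: lentiviral eGFP-IRES-mCherry reporter pool sorted by FACS 96 h post-transduction, gated on mCherry-high cells, Illumina read counts normalized per million, median across four biological replicates.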

Substance	median enrichment
RPQMAGTCSSDERVLRRTPPSSVLEAGRLGSRRGQRHLLSVLGCKQLCVSGDTSHHVPGN [AIRE]	7.82
RPRPGPALPPGAPTCNKCSEAGK [CYBA]	0.134
RPSGPPLPLGQGNQLLRDFSCLEGAVIAPPHCPTVLLGL [FBXW4]	4.69
RPSTKGPPSWCSITSFLKGISFFTTLS [FANCE]	13.8
RPSTVPGP [HYKK]	0.522
RPWPRAQACLGWALPLTTQGGPGPLGFLPWGQQPPAGLVGSGFLDFLMKRGYL [KCNH4]	4.41
RQADEGATLTQSPQKAKCDSQVSSLTQR [PCARE]	0.302
RQEGPSGRDGPGGGQMGRCGRHVIDSTEGLSCVPPTLPWTDSEGPPGTSAKAG [KCNF1]	5.07
RQEGRPHCFSHPFPLLPMGRGPGCRKSSYLQELHHNLEGSSWSCEFSLYSVTIPDHLIKMLPPSIGFIELVTS [NME1]	9.63
RQGPPLFWTP [CDHR2]	1.05
RQGRLRGQAGGQQLQEGSDNSPPAWAHLLLLLLLGSAPQTRLWPPSQCPVTSPE [CRACR2B]	9.74
RQLQELNSLAPEELAAQEAKLAF [TMEM81]	0.0302
RQRPPAPALPQPSY [SART1]	0.558
RQRRD [PVR]	0.306
RQSWCCRPIGRSWKASGCVPAMSWHWQSWRRRRANPRAQRTLRKPAGAESCVGHPTRHPSSLRRPVGRQGSRGFALLLSSRVM [RAB15]	3.13
RQTSQSSQPGLHPPWLPPAHMAPSTGLQPGAREL [HOOK2]	11.1
RQWLSCDDRQNGGEICLWEVEP [FBXO45]	6.14
RRAGGGWWPRRQHTTRLHTCMLSPRGNGLYIAHFTLFRRHFIPALVLLEGLSRQSSSCSASVCDSPPSTPMALSLGDSSSPRK [PRKAB1]	5.36
RRGEGRPAVDSLILGRSLGCAAISFCECANTKLSRAKL [SLC25A25]	8.98
RRINLQRSRQDDLAAWGLLSPRNSHVGFPLPGWPLDLSSKPFLTSS [CHI3L2]	6.12
RRKCLLPW [PKD1L2]	1.93
RRKEFCKETIRFVKDILHNI [PPP1CB]	7.66
RRLARKMPRGG [TRAPPC3L]	5.87
RRLSISRDMVLTQQFPVMAKCSI [IL13RA2]	6.6

Substance	median enrichment
RRPRAPHLSRSLMPQGAQ [SLC44A2]	1.11
RRPVPR [TBC1D24]	1.51
RRR [Arg03]	0.663
RRRR [Arg04]	0.344
RRRRR [Arg05]	0.5
RRRRRR [Arg06]	0.898
RRRRRRGRAAGGTAQATQGRPLRPGGQGGRPASGDRLPPGLWQDVPSEGYFEEPPGPGDREAPVSSMNALPRTQARASGVHSE [MSANTD1]	0.682
RRRRRRR [Arg07]	0.889
RRRRRRRR [Arg08]	1.49
RRRRRRRRR [Arg09]	1.11
RRRRRRRRRR [Arg10]	0.77
RRSPVCPVKTEIN [TM9SF2]	0.793
RRTACSDQRAQRPEDKSGGDSMGMGVGCLRERTHGLGRGERCMGITFARAAYLKVTVSSGTAGDRYLLLQEINYPENSTQPVT [LEXM]	13.9
RRTHRQ [ZNF397]	1.02
RRVQRTCSSLGEEAPLKNSPPGTQLQPSGQAAGRRQRQREETLALTPSRVVIFGFAHHPGLPDGTLL [C12orf49]	11.7
RSAAIRWKPLEPEAAA [FXYD6]	12
RSC [DCK]	0.415
RSCAAQSQTPAPTTYFCYTQEHFRKLSQLIFCFSSMSILSVSHFEDFFSLLYLCFSFFGFYFVVLSVIFNVPKICTCSIKNVV [HOOK3]	3.09
RSGLFQ [IQCF1]	0.394
RSGLRRRRHRGE [Degron APPBP2]	6.28
RSGTGRLLIEIHLLGGTGFP [MRNIP]	8.41
RSHFCQMLPSTINALGGRRGRQ [ETHE1]	12.6
RSHL [BBOX1]	11.7
RSHTACSFGCD [EIF2B5]	0.722
